The values that follow come from article doi:10.1101/2020.02.09.940833.

In assay [1] the target is SAR1A (human) (UniProt Q9NR31). Briefly: liposome flotation.
The target of assay [2] is SAR1B>A-helix (human) (UniProt Q9Y6B6). Briefly: liposome flotation.

Sequence of SEC23A (Q15436 whole entry): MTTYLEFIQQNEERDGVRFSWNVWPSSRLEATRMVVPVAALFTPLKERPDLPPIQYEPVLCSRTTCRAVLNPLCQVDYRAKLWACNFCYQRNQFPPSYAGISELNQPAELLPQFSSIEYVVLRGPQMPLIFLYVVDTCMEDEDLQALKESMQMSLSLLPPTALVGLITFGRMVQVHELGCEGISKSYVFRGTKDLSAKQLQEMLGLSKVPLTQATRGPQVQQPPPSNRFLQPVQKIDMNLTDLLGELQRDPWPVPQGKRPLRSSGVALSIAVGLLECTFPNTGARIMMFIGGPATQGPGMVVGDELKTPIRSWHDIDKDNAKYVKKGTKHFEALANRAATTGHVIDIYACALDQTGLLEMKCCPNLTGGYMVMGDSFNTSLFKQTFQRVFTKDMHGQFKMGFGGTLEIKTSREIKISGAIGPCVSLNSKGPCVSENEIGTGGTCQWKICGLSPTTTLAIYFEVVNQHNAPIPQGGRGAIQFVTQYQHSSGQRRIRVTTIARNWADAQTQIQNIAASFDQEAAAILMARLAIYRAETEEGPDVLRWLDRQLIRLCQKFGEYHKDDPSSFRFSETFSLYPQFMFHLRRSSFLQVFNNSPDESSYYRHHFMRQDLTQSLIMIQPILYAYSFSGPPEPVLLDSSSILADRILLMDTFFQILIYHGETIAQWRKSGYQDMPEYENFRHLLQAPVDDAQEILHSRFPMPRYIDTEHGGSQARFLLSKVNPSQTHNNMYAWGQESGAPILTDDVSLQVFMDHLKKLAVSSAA
Sequence of SAR1A (human) (Q9NR31 whole entry): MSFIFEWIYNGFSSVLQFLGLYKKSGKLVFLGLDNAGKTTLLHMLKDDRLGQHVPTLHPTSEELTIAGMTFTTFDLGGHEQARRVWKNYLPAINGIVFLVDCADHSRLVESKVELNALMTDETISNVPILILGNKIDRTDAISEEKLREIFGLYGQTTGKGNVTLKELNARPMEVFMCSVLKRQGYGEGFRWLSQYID

In assay [1], “GTPase activating fragment of SEC31A (from UniProt O94979 1-1220) (domain or fragment)” came in with a fold recruitment relative to SAR1B of 2 fold.

“SEC23A (from UniProt Q15436 1-765) (natural protein)”: the fold reduction of binding (reference as read: SAR1A>B-helix) in assay [2] stood at 2 fold.
